Substitutions are numbered along the chain they refer to. In names and notes the source's numbering stands.
T1: sMepS-6×His-C (soluble MepS without its lipoprotein signal peptide, C-terminal His-tag), P0AFV4
T1 chain: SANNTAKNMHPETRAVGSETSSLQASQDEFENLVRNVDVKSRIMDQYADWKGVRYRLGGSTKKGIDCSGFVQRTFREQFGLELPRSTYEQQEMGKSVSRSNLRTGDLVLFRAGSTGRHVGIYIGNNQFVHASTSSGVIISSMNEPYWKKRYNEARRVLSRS

B1: sNlpI (soluble NlpI without its lipoprotein signal peptide), P0AFB1 A114W (protein)
chain: SNTSWRKSEVLAVPLQPTLQQEVILARMEQILASRALTDDERAQLLYERGVLYDSLGLRALARNDFSQALAIRPDMPEVFNYLGIYLTQAGNFDWAYEAFDSVLELDPTYNYAHLNRGIALYYGGRDKLAQDDLLAFYQDDPNDPFRSLWLYLAEQKLDEKQAKEVLKQHFEKSDKEQWGWNIVEFYLGNISEQTLMERLKADATDNTSLAEHLSETNFYLGKYYLSLGDLDSATALFKLAVANNVHNFVEHRYALLELSLLGQDQDDLAESDQQ
B2: sNlpI (soluble NlpI without its lipoprotein signal peptide) (natural protein)
chain: B1 chain with W95A

Experiments:
[1] = biological target: T1, sMepS-6×His-C (soluble MepS without its …); test: ITC; conditions: chain shown with the change
[2] = biological target: Prc (full-length, C-terminal His-tag) (E. coli) (UniProt P23865)
Sequence of Prc (full-length, C-terminal His-tag) (E. coli) (P23865 23-682 limits assumed): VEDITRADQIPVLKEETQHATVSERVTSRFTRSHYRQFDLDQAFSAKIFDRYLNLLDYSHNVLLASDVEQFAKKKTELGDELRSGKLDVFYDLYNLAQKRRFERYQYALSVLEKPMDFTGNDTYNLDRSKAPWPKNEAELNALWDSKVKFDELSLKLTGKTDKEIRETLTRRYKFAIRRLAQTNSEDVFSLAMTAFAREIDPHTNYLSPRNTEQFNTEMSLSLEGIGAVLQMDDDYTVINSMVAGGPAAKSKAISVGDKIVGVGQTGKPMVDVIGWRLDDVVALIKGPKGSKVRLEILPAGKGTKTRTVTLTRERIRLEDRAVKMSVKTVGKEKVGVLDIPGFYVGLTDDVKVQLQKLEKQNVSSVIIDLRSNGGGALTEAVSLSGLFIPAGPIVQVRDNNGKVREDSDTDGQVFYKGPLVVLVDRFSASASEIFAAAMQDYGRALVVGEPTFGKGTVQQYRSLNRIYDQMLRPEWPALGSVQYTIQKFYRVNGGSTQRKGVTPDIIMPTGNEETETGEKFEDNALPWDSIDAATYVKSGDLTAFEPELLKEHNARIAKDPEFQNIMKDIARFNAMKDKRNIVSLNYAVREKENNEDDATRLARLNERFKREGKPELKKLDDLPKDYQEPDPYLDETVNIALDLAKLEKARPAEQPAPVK

[3] = biological target: Prc (full-length, C-terminal His-tag) (E. coli) (UniProt P23865); test: ITC; iTC200, 20 °C, 20 mM HEPES pH 7.5, 300 mM NaCl, 2 mM 2-mercaptoethanol; 23 µM sMepS or Prc in the cell, 230 µM sNlpI (alone or with equimolar Prc) in the syringe; one binding site model
[4] = biological target: sMepS-6×His-C (soluble MepS without its lipoprotein signal peptide, C-terminal His-tag) (E. coli) (UniProt P0AFV4); test: as above

Binder	Kd [1] [nM]	melting temperature (T m) of Prc-sNlpI in thermal shift assay (Prc alone 40.1 °C) [2] [°C]	Kd [3] [nM]	Kd [4] [nM]
B1	1450			
B2		53.6	< 10	750
